Experimental data reported in patent US20140141019A1.

Key:
Assay in all cases: SPOT alanine scanning, spot intensity
[1] = molecular target: HER3 peptide 342-356 … with Asp352 replaced by alanine (human)
[2] = molecular target: HER3 peptide 343-357 … with Asp352 replaced by alanine (human)
[3] = molecular target: HER3 peptide 344-358 … with Asp352 replaced by alanine (human)
[4] = molecular target: alanine analogs at Pro353 and Ile357 of the HER3 pentadecapeptides 342-356, 343-357 and 344-358

decrease in binding capacity against the unmodified peptide [1]: 92%
decrease in binding capacity against the unmodified peptide [2]: 92%
decrease in binding capacity against the unmodified peptide [3]: 92%
decrease in antibody reactivity against the unmodified peptide [4]: 40 to 60%
B1: mAb H4B-121 (purified human IgG) (antibody, V domains shown)
VH: EVQLVESGGGLVQPGRSLRLSCAASGFTFDDYAMHWVRQAPGKGLEWVSGISWNSGSIGYADSVKGRFTISRDNAKNSLYLQMNSLRAEDTAVYYCAREGQWPNYGMDVWGQGTTVTVSS
VL: QSVLTQPPSVSAAPGQKVTISCPGSSSNIGNNYVSWYQQLPGTAPKLLIYDNNERPSGIPDRFSGSTSGTSATLDITDLQAEDEATYYCGAWDNTLGVYVLGTGTQLTVL
